These are literature values, as cited in publication PMC2721158.

For series [1], the target named is cyclic HPQ peptide … (synthetic construct).
Series [2] has as its target linear peptide HDHPQNL (synthetic construct). Briefly: titration calorimetry.
Series [3] has as its target linear HPQ peptide FSHPQNT (synthetic construct). Briefly: titration calorimetry.

Chain of streptavidin (P22629 25-183): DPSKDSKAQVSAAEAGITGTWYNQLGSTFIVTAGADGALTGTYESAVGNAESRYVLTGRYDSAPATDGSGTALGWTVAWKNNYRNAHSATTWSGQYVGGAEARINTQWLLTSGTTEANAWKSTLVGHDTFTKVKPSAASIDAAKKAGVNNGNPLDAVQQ

Take streptavidin (from UniProt P22629): the Kd was 230 nM in series [1], 282 µM in series [2] and 126 µM in series [3].

The Kd is a measure of binding affinity in units of concentration.
